The values below come from paper PMC2995291.

pKd: −log10 of the molar value. Read-outs that look alike come from different tables or passages of the source.

Test [1] deals with human ubiquitin with noncleavable N-terminal (His)6 tag (human) (UniProt P0CG48). Description: ITC.
For test [2] the target is unchanged. Nature of the test: ITC. This is another data set of the same source. Background: In ITC the heat of successive injections is recorded.

As a reminder, the pKd is the Kd on a negative log10 scale, so that one unit is a factor of ten. A high value points to a low Kd. Usually stoichiometry N stands for a count of units in the complex or per binding partner. Regarding “human Polι UBM2 (residues 679–707) (domain or fragment)”, in test [1], the negative-log Kd (pKd) is 4.62, the dH (kcal · mol^−1) is 4.5 and the stoichiometry N was 1.01. Besides, the pKd in test [2] is 4.63.
Turning to “human Polι UBM2 (residues 674–715) (domain or fragment)”, the pKd in test [2] was 4.64.
Take “human Polι UBM2 P692A (residues 674–715) (domain or fragment)”: the pKd in test [1] was 3.76.
